# T1: soluble CD23 antigen (soluble and monomeric form) (UniProt P06734 150-321, limits assumed)
# T1 construct: also called free CD23
# T1 sequence (looked up): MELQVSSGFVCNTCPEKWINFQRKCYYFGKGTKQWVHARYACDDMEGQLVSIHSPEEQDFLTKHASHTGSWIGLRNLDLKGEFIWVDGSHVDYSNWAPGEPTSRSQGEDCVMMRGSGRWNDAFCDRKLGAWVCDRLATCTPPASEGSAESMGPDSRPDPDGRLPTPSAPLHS
# B1: PRIMATIZED p5E8 Fab (Fab, V domains shown)
# VH: EVQLVESGGGLAKPGGSLRLSCAASGFRFTFNNYYMDWVRQAPGQGLEWVSRISSSGDPTWYADSVKGRFTISRENAKNTLFLQMNSLRAEDTAVYYCASLTTGSDSWGQGVLVTVSS
# VL: DIQMTQSPSSLSASVGDRVTITCRASQDIRYYLNWYQQKPGKAPKLLIYVASSLQSGVPSRFSGSGSGTEFTLTVSSLQPEDFATYYCLQVYSTPRTFGQGTKVEIKR
# notes: domain: CH1
# Tests used:
# [1] = target: T1, soluble CD23 antigen (soluble and …); assay: isothermal titration calorimetry, average over temperatures
# Protocol: Isothermal titration calorimetry (ITC) accurately measures the thermodynamics of protein-protein interactions and can further provide the stoichiometry of the experimental complex. CD23, C-terminal tetravalent p5E8, p5E8 IgG and p5E8 Fab were extensively dialyzed for 12 hours against PBS. ITC experiments were performed on an iTC200 microcalorimeter (MicroCal LLC, Northampton, Mass.). After degassing, 25×1.5 μl aliquots of 100 μM CD23 were injected at 5 minute intervals into the 350-μl sample cell containing 5 μM solutions of antibody/Fab. Raw data were then integrated and fitted using a nonlinear least squares routine in ITC data analysis software ORIGIN (MicroCal LLC, Northampton, Mass.). The fitting generated values for the independent variables ΔH⁰ (binding enthalpy), N (the stoichiometry), and Kb (binding constant). For each antibody/Fab, ITC experiments were performed at 5° C., 15° C., 25° C., and 37° C. in order to determine the temperature dependence on the binding heats and to optimize the experiments to obtain better signal to noise.
# The CD23 in the syringe and the antibody in the sample cell are both monomers in solution. On fitting the data, N values approximating 1, 2, and 4 would indicate binding of all available antigen binding sites for the p5E8 Fab, p5E8 IgG and the C-terminal tetravalent p5E8, respectively. […]
# [2] = target: T1, soluble CD23 antigen (soluble and …); assay: solution-phase competition Biacore, free CD23 read on an immobilised p5E8 chip; average of three titrations
# Protocol: In this experiment, the concentration of free CD23 (soluble and monomeric form) in solution is determined by the initial rate of binding to a CM5 Biacore chip containing immobilized p5E8 MAb. Into these CD23 solutions were titrated the p5E8 Fab prepared by papain digestion (one potential binding site), p5E8 MAb (two potential binding sites), and the C-terminal anti-CD23 tetravalent antibody (four potential binding sites). The p5E8 Fab, MAb, and tetravalent antibody are the ligands and CD23 is the analyte being tested.
# P5E8 was immobilized to 20247 RUs on a CM5 sensor chip. CD23 and CD23 plus antibody were flowed over the sensor chip at a 10 μl/min for 3 minutes. Initial binding rates were obtained from a fit to the initial linear portion of the raw sensorgram data (FIG. 23A). The N (stoichiometry) values were determined by plotting the antibody concentration against the initial rate, Vᵢ, obtained at each concentration (FIG. 23B). […] Three experiments measured the initial rates of binding of free CD23 to the p5E8 sensor chip (concentrations for CD23 ranged from 0.15 to 15 nM) in the presence of constant concentrations of antibody of 1, 2.5 and 10 nM. […] The calculated stoichiometries correspond to binding of CD23 antigen to all four available antigen binding sites for the C-terminal tetravalent p5E8.
binder,measurement,setting,value
B1,Avg. N (stoichiometry),[1],0.99
same,"N (stoichiometry, CD23 molecules bound per antibody)",[2],1.05
